Source: patent US20180094062A1 (Hoffmann-La Roche, published 2018)

Target: T1, human HER3, full length, on cells (T47D, MCF7, transfected HEK293) (human, UniProt P21860 20-1342)
T1 construct: endogenous on T47D and MCF7 tumor cells, transient full length in HEK293 (formalin fixed for IHC); also called expressed HER3 ECD
Assay: FACS on T47D cells, 0 minutes incubation

B1: anti-HER3 antibody M-08-11 (antibody, V domains shown)
VH: QAYLQQSGAELMRPGASVRMSCQASGYTFTSYTIHWLKQTPRQGLEWIGAIYPRNGDFSYNQKFKDKASLTVDTSSSTAYMHLSSLTSEDSAVYFCARTINYGDWFAYWGQGTLVTVSA
VL: DIQMIQSPASLFVSEGETVIITCRASENIYSNLAWYHQKKGKSPQVLVYAAIKLADGVPLRFSGSGSGTQFSLKINSLQSEDFGSYYCQHFWGPPYTFGSGTNLEIK
notes: mouse monoclonal antibody from hybridoma, tested as hybridoma supernatant or as antibody; also called M-011
fold binding level with HRG against without HRG: ≥ 2 fold
